Literature values, collected in paper PMC4926285.

Molecular target: insulin receptor (site 1) site 1 (L1 and carboxy-terminal α-chain) (Homo sapiens) (UniProt P06213)
Sequence of UniProt P06213 (P06213 28-182): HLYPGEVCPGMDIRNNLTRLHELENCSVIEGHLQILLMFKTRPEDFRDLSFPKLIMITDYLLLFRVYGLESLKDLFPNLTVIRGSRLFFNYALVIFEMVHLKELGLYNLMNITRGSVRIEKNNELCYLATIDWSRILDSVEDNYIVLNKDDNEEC

Sequence of insulin (P01308 90-110): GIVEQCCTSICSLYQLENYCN

Q: For insulin (from UniProt P01308), which Kd is on record?
A: The Kd was 6.4 nM.
